This note sets out measurements from patent US20100166772A1, “ANTIGEN-BINDING PROTEINS TARGETING S. AUREUS ORF0657n” (priority 2007, published 2010).

Experiment [1] concerns S. aureus. The experiment in a line: Opsonophagocytosis activity (OPA) assay with HL60_DMF cells. The following applies: FIGS. 4 and 5. It counts as cell-based. The text has this: An opsonophagocytosis activity (OPA) assay was developed to evaluate an antibody's ability to opsonophagocytose. The assay measures the ability of antibodies to bind and fix complement (C′) to the bacterial surface, which results in an increase in the level of phagocytosis of these bacteria by granulocytic effecter cells.
ORF0657n is an iron regulated protein on the surface of S. aureus that appears to be involved in heme/Fe acquisition. […] For this assay the strain is iron starved to increase the expression of ORF0657n. This strain also lacks the ability to produce Protein A. Protein A can bind to the Fc portion of any IgG and the presence of this non-specifically bound antibody could interfere in the OPA reaction.
HL60 cells were exposed to dimethylformamide (DMF) for five to six days to induce the cells to differentiate towards a more granulocytic phenotype. Next, 2% C′-sufficient gnotobiotic pig serum was added to the antibody bound cells. Finally, the antibody and C′ exposed cells were then labeled with the fluorescent chemical 5′, 6′-FAM-SE.
After incubation of opsonized, fluorescently-labeled bacteria and unlabeled HL60_DMF cells, the level of phagocytosis was determined by measuring the percentage of HL60_DMF cells containing labeled bacteria by flow cytometry. […]

The subject of experiment [2] is ORF0657n. The following applies: Luminex binding assay.
Procedure: Construction of ORF0657n-bead—9.4×10^6 Radix maleimide microspheres (Georgetown, Tex.) were coupled to 750 μg ORF0657n-Se (ORF0657n containing carboxyl terminal cysteine group) at room temperature for 2 hours. Beads were washed 3 times with 1 ml PBS and then quenched with 1 M N-acetyl-L-cysteine (Sigma) for 2 hours at room temperature. Microspheres were washed 3× in PBS. Beads were enumerated and re-suspended at a final concentration of 500 microspheres/μl.
Detection of Competition between CAT ScFvs and CAT mAbs—CAT scFvs were individually competed against the CAT antibodies in the Luminex cLIA assay. ScFvs were diluted 1:4, 1:8, 1:16 and 1:32 in PBS-TBN (0.05% Tween 20, 1% BSA and 0.05% sodium azide) and incubated with 5000 ORF0657n-coupled microspheres in a Multiscreen filter plate (Millipore) for 1 hour, 15 minutes at room temperature. The beads were then washed 3× with PBS with 0.05% Tween 20 (PBS/Tween20). The individual antibodies were diluted in PBS-TBN to a final concentration of 2 μg/ml and added to separate plates. […] Microspheres were re-suspended in PBS/Tween20 and the median fluorescent signal was read using a Bio-Plex luminometer (BioRad). ScFvs were considered competitive if the median fluorescent signal was reduced by at least 30% over the signal detected for non-competitive scFvs for at least two dilutions.

B1: mAb CS-D10: IgG1 antibody, light chain variable region SEQ ID NO: 5, heavy chain variable region SEQ ID NO: 6, lambda (antibody, V domains shown)
VH: QVQLQESGPGLVKPSETLSLTCTVSGGSIRSSSYYWGWFRQTPGKGLEWLGNVFFSGSAYYNPSLKSRVTISIDTSENQSSLKLTSVTAADTAVYYCARPQAYSHDSSGHSPFDLWGRGTMVTVSS
VL: QAVLTQPSSVSGAPGQRVTISCTGGSSNIGAGYDVHWYQQIPGTAPKLLIYGNSNRPSGVPDRFSGSKSGTSASLAITGLQAEDEADYYCQSYDSSLNGPVVFGGGTKVTVLG
modifications: mAb CS-C10 heavy chain variable region; mAb CS-C10 light chain variable region
Consider B1, for which the “opsonic activity compared to isotype control” value in experiment [1] is listed as “higher opsonic activity compared to their IgG1 isotype control”. In addition, in experiment [2], the “mAbs compete for binding to the same epitope” value is “compete for binding to the same epitope”.
